Target: T1, CRPM (cAMP receptor protein of Mtb) (Mycobacterium tuberculosis) (UniProt P9WMH3)
T1 sequence: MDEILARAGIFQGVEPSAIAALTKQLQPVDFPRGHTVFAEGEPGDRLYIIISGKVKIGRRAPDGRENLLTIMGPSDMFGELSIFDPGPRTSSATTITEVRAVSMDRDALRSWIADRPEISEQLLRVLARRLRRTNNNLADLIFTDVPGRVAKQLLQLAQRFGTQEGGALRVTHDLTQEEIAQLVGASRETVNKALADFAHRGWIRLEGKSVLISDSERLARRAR
Assay: EMSA

## TCAGCGACCGTCAGCACGCCAGTTCAATACGGCGAGAAGCGCGTTCTCATCGAAAGTCGGTCAAGCTGGCGGACTGAGCACTGCTCTCCGGGCTTGACCGGGGCCTCTCCCAGCTACGCCCCGAGCGTGTGCCCTGCCGACACGCGGGAACAAGACCCGCACGACCAGCGTTAGCATGCTCAGTAAGTTGAGTGCATCAGGCTCAGCTCTGAATTGACAGCACACCGCCGTCGAGGCAAGCTTGAGCGGGGTGCACTCATCATAGTGCAGGAAAGAAGCTCTACATATTCAGGAGGATTCACC (double strand) [dnaK-303]
  binding signal (fold reduced vs dnaK-346): 2
